Test results published in the supplement of paper PMC11246515.
± gives the standard deviation of the averaged measurements.

Assay: total protein half-life in vivo (active degradation + dilution); higher = more stable protein
[1] = E. coli NCM3722 delta-clpP delta-lon delta-hslV, growth: N-lim chemostat, doubling time 6 h
[2] = E. coli NCM3722 delta-clpP, growth: N-lim chemostat, doubling time 6 h
[3] = E. coli NCM3722 delta-hslV, growth: N-lim chemostat, doubling time 6 h
[4] = E. coli NCM3722 delta-lon, growth: N-lim chemostat, doubling time 6 h
[5] = E. coli NCM3722 delta-smpB, growth: N-lim chemostat, doubling time 6 h
[6] = wild type E. coli NCM3722, growth: C-lim chemostat, doubling time 3 h
[7] = wild type E. coli NCM3722, growth: C-lim chemostat, doubling time 6 h
[8] = wild type E. coli NCM3722, growth: C-lim chemostat, doubling time 12 h
[9] = wild type E. coli NCM3722, growth: N-lim chemostat, doubling time 6 h
[10] = wild type E. coli NCM3722, growth: N-lim chemostat, doubling time 12 h
[11] = wild type E. coli NCM3722, growth: P-lim chemostat, doubling time 6 h
[12] = wild type E. coli NCM3722, growth: P-lim chemostat, doubling time 12 h

Row | Sequence | total protein half-life in vivo [1] | total protein half-life in vivo [2] | total protein half-life in vivo [3] | total protein half-life in vivo [4] | total protein half-life in vivo [5] | total protein half-life in vivo [6] | total protein half-life in vivo [7] | total protein half-life in vivo [8] | total protein half-life in vivo [9] | total protein half-life in vivo [10] | total protein half-life in vivo [11] | total protein half-life in vivo [12]
1 | MSQIHKHTIPANIADRCLINPQQYEAMYQQSINVPDTFWGEQGKILDWIKPYQKVKNTSFAPGNVSIKWYEDGTLNLAANCLDRHLQENGDRTAIIWEGDDASQSKHISYKELHRDVCRFANTLLELGIKKGDVVAIYMPMVPEAAVAMLACARIGAVHSVIFGGFSPEAVAGRIIDSNSRLVITSDEGVRAGRSIPLKKNVDDALKNPNVTSVEHVVVLKRTGGKIDWQEGRDLWWHDLVEQASDQHQAEEMNAEDPLFILYTSGSTGKPKGVLHTTGGYLVYAALTFKYVFDYHPGDIYWCTADVGWVTGHSYLLYGPLACGATTLMFEGVPNWPTPARMAQVVDKHQVNILYTAPTAIRALMAEGDKAIEGTDRSSLRILGSVGEPINPEAWEWYWKKIGNEKCPVVDTWWQTETGGFMITPLPGATELKAGSATRPFFGVQPALVDNEGNPLEGATEGSLVITDSWPGQARTLFGDHERFEQTYFSTFKNMYFSGDGARRDEDGYYWITGRVDDVLNVSGHRLGTAEIESALVAHPKIAEAAVVGIPHNIKGQAIYAYVTLNHGEEPSPELYAEVRNWVRKEIGPLATPDVLHWTDSLPKTRSGKIMRRILRKIAAGDTSNLGDTSTLADPGVVEKLLEEKQAIAMPS | 4.67 ± 0.31 h | 4.83 ± 0.67 h | 3.24 ± 0.14 h | 3.54 ± 0.24 h | 3.221 ± 0.018 h | 2.89 ± 0.091 h | 4.91 ± 0.44 h | 7.66 ± 0.46 h | 3.88 ± 0.81 h | 4.67 ± 0.55 h | 4.28 ± 0.03 h | 7.43 ± 0.81 h
2 | MSQKLKVVTIGGGSSYTPELLEGFIKRYHELPVSELWLVDVEGGKPKLDIIFDLCQRMIDNAGVPMKLYKTLDRREALKDADFVTTQLRVGQLPARELDERIPLSHGYLGQETNGAGGLFKGLRTIPVIFDIVKDVEELCPNAWVINFTNPAGMVTEAVYRHTGFKRFIGVCNIPIGMKMFIRDVLMLKDSDDLSIDLFGLNHMVFIKDVLINGKSRFAELLDGVASGQLKASSVKNIFDLPFSEGLIRSLNLLPCSYLLYYFKQKEMLAIEMGEYYKGGARAQVVQKVEKQLFELYKNPELKVKPKELEQRGGAYYSDAACEVINAIYNDKQAEHYVNIPHHGQIDNIPADWAVEMTCKLGRDGATPHPRITHFDDKVMGLIHTIKGFEIAASNAALSGEFNDVLLALNLSPLVHSDRDAELLAREMILAHEKWLPNFADCIAELKKAH | 6.05 ± 1.9 h | 7.38 h | > 8 h | – | 3.97 ± 0.054 h | 2.84 ± 0.34 h | 6.45 ± 1.8 h | 9.95 ± 0.38 h | 4.52 h | 8.23 ± 0.59 h | 6.29 ± 0.62 h | 11 ± 1.1 h
3 | MSQLNSVWVFSDNPERYAELFGGAQQWGQQVYAIVQNTDQAQAVMPYGPKCLYVLAQNDALQRTENYAESIAALLKDKHPAMLLLAATKRGKALAARLSVQLNAALVNDATAVDIVDGHICAEHRMYGGLAFAQEKINSPLAIITLAPGVQEPCTSDTSHQCPTETVPYVAPRHEILCRERRAKAASSVDLSKAKRVVGVGRGLAAQDDLKMVHELAAVLNAEVGCSRPIAEGENWMERERYIGVSGVLLKSDLYLTLGISGQIQHMVGGNGAKVIVAINKDKNAPIFNYADYGLVGDIYKVVPALISQLSR | 5.37 ± 0.057 h | – | 4.24 h | – | – | – | – | – | – | 6.04 h | – | –
4 | MSQLTHINAAGEAHMVDVSAKAETVREARAEAFVTMRSETLAMIIDGRHHKGDVFATARIAGIQAAKRTWDLIPLCHPLMLSKVEVNLQAEPEHNRVRIETLCRLTGKTGVEMEALTAASVAALTIYDMCKAVQKDMVIGPVRLLAKSGGKSGDFKVEADD [P0A738] | 5.289 ± 0.028 h | 5.03 ± 0.15 h | 4.56 ± 0.47 h | 4.41 ± 0.087 h | 3.95 ± 0.17 h | 2.9 ± 0.24 h | 4.96 ± 0.099 h | 8.28 ± 0.49 h | 4.1 ± 0.28 h | 5.91 ± 0.19 h | 4.92 ± 0.059 h | 9.42 ± 0.47 h
5 | MSQNLDATAINQIHALISAQGVNEIISKIGADAVALPENFRIHDLEKFNLNRFRFRGALSTASIDDFTRYSKDLADEGTRCFIDADNMRAVSVLNLGTIDEPGHADNTATLKLKKTAPFSALLSVNGERNSQKSLAEWIEDWADYLVGFDANGDAIQATKAAAAIRKITIEANQTADFEDNDFSGKRSLMESVEAKTKDIMPVAFEFKCVPFEGLKERPFKLRLSIITGDRPVLVLRIIQLEAVQEDMANEFRDLLVEKFKDSKVETFIGTFTA | 3.03 ± 0.25 h | 3.16 h | – | – | – | 2.69 h | 5.13 ± 0.22 h | 9.79 ± 0.92 h | – | 5.29 h | 5.71 ± 0.56 h | 15.2 ± 0.98 h
6 | MSQNVYQFIDLQRVDPPKKPLKIRKIEFVEIYEPFSEGQAKAQADRCLSCGNPYCEWKCPVHNYIPNWLKLANEGRIFEAAELSHQTNTLPEVCGRVCPQDRLCEGSCTLNDEFGAVTIGNIERYINDKAFEMGWRPDMSGVKQTGKKVAIIGAGPAGLACADVLTRNGVKAVVFDRHPEIGGLLTFGIPAFKLEKEVMTRRREIFTGMGIEFKLNTEVGRDVQLDDLLSDYDAVFLGVGTYQSMRGGLENEDADGVYAALPFLIANTKQLMGFGETRDEPFVSMEGKRVVVLGGGDTAMDCVRTSVRQGAKHVTCAYRRDEENMPGSRREVKNAREEGVEFKFNVQPLGIEVNGNGKVSGVKMVRTEMGEPDAKGRRRAEIVAGSEHIVPADAVIMAFGFRPHNMEWLAKHSVELDSQGRIIAPEGSDNAFQTSNPKIFAGGDIVRGSDLVVTAIAEGRKAADGIMNWLEV | 5.1 ± 0.5 h | 4.59 ± 0.21 h | 4.73 ± 0.05 h | 5.25 ± 0.19 h | 4.63 ± 0.37 h | 2.7 ± 0.04 h | 4.602 ± 0.032 h | 7.68 ± 0.49 h | 4.9 ± 0.24 h | 7.719 ± 0.058 h | 4.54 ± 0.39 h | 8.48 ± 0.63 h
7 | MSQPLLSVNGLMMRFGGLLAVNNVNLELYPQEIVSLIGPNGAGKTTVFNCLTGFYKPTGGTILLRDQHLEGLPGQQIARMGVVRTFQHVRLFREMTVIENLLVAQHQQLKTGLFSGLLKTPSFRRAQSEALDRAATWLERIGLLEHANRQASNLAYGDQRRLEIARCMVTQPEILMLDEPAAGLNPKETKELDELIAELRNHHNTTILLIEHDMKLVMGISDRIYVVNQGTPLANGTPEQIRNNPDVIRAYLGEA [P0A9S7] | 6.52 ± 0.66 h | 6.12 ± 0.48 h | 6.06 ± 0.53 h | 6.07 ± 0.61 h | 5.74 ± 0.43 h | 3.12 ± 0.036 h | 6.18 ± 0.31 h | 11.99 ± 0.11 h | 6.06 ± 0.2 h | 12.3 ± 0.36 h | 6.12 ± 0.34 h | 12.9 ± 0.69 h
8 | MSQPLNADQELVSDVVACQLVIKQILDVLDVIAPVEVREKMSSQLKNIDFTNHPAAADPVTMRAIQKAIALIELKFTPQGESH [P0AD10] | 5.83 ± 0.39 h | – | 5.15 h | – | 3.91 ± 0.9 h | 3.21 h | 4.53 ± 0.82 h | 8.31 ± 0.17 h | 3.32 h | 6.2 h | 4.76 ± 1.4 h | 10.3 ± 0.33 h
9 | MSQSLFSQPLNVINVGIAMFSDDLKKQHVEVTQLDWTPPGQGNMQVVQALDNIADSPLADKIAAANQQALERIIQSHPVLIGFDQAINVVPGMTAKTILHAGPPITWEKMCGAMKGAVTGALVFEGLAKDLDEAAELAASGEITFSPCHEHDCVGSMAGVTSASMFMHIVKNKTYGNIAYTNMSEQMAKILRMGANDQSVIDRLNWMRDVQGPILRDAMKIIGEIDLRLMLAQALHMGDECHNRNNAGTTLLIQALTPGIIQAGYSVEQQREVFEFVASSDYFSGPTWMAMCKAAMDAAHGIEYSTVVTTMARNGVEFGLRVSGLPGQWFTGPAQQVIGPMFAGYKPEDSGLDIGDSAITETYGIGGFAMATAPAIVALVGGTVEEAIDFSRQMREITLGENPNVTIPLLGFMGVPSAIDITRVGSSGILPVINTAIAHKDAGVGMIGAGIVHPPFACFEKAILGWCERYGV | 5.39 ± 0.44 h | – | – | – | – | – | 4.45 h | 7.84 h | 2.89 h | 4.45 h | – | 8.94 ± 0.66 h
10 | MSQTIDLTLDGLSCGHCVKRVKESLEQRPDVEQADVSITEAHVTGTASAEQLIETIKQAGYDASVSHPKAKPLAESSIPSEALTAVSEALPAATADDDDSQQLLLSGMSCASCVTRVQNALQSVPGVTQARVNLAERTALVMGSASPQDLVQAVEKAGYGAEAIEDDAKRRERQQETAVATMKRFRWQAIVALAVGIPVMVWGMIGDNMMVTADNRSLWLVIGLITLAVMVFAGGHFYRSAWKSLLNGAATMDTLVALGTGVAWLYSMSVNLWPQWFPMEARHLYYEASAMIIGLINLGHMLEARARQRSSKALEKLLDLTPPTARLVTDEGEKSVPLAEVQPGMLLRLTTGDRVPVDGEITQGEAWLDEAMLTGEPIPQQKGEGDSVHAGTVVQDGSVLFRASAVGSHTTLSRIIRMVRQAQSSKPEIGQLADKISAVFVPVVVVIALVSAAIWYFFGPAPQIVYTLVIATTVLIIACPCALGLATPMSIISGVGRAAEFGVLVRDADALQRASTLDTVVFDKTGTLTEGKPQVVAVKTFADVDEAQALRLAAALEQGSSHPLARAILDKAGDMQLPQVNGFRTLRGLGVSGEAEGHALLLGNQALLNEQQVGTKAIEAEITAQASQGATPVLLAVDGKAVALLAVRDPLRSDSVAALQRLHKAGYRLVMLTGDNPTTANAIAKEAGIDEVIAGVLPDGKAEAIKHLQSEGRQVAMVGDGINDAPALAQADVGIAMGGGSDVAIETAAITLMRHSLMGVADALAISRATLHNMKQNLLGAFIYNSIGIPVAAGILWPFTGTLLNPVVAGAAMALSSITVVSNANRLLRFKPKE | 5.76 ± 0.52 h | 5.33 ± 0.2 h | 5.194 ± 0.042 h | 5.433 ± 0.023 h | 5.23 ± 0.55 h | 2.89 ± 0.21 h | 5.07 ± 0.085 h | 9.5 ± 0.77 h | 5.26 ± 0.34 h | 9.52 ± 0.35 h | 5.33 ± 0.32 h | 9.65 ± 0.45 h
